Results reported in publication PMC4551919 (Nucleic Acids Research, 2015).

B1: SMG-8 (natural protein)
chain: MAGPVSLRDLLMGASAWMGSESPGGSPTEGGGSAAGGPEPPWREDEICVVGIFGKTALRLNSEKFSLVNTVCDRQVFPLFRHQDPGDPGPGIRTEAGAVGEAGGAEDPGAAAGGSVRGSGAVAEGNRTEAGSQDYSLLQAYYSQESKVLYLLLTSICDNSQLLRACRALQSGEAGGGLSLPHAEAHEFWKHQEKLQCLSLLYLFSVCHILLLVHPTCSFDITYDRVFRALDGLRQKVLPLLKTAIKDCPVGKDWKLNCRPCPPRLLFLFQLNGALKVEPPRNQDPAHPDKPKKHSPKRRLQHALEDQIYRIFRKSRVLTNQSINCLFTVPANQAFVYIVPGSQEEDPVGMLLDQLRSHCTVKDPESLLVPAPLSGPRRYQVMRQHSRQQLSFHIDSSSSSSSGQLVDFTLREFLWQHVELVLSKKGFDDSVGRNPQPSHFELPTYQKWISAASKLYEVAIDGKEEDLGSPTGELTSKILSSIKVLEGFLDIDTKFSENRCQKALPMAHSAYQSNLPHNYTMTVHKNQLAQALRVYSQHARGPAFHKYAMQLHEDCYKFWSNGHQLCEERSLTDQHCVHKFHSLPKSGEKPEADRNPPVLYHNSRARSTGACNCGRKQAPRDDPFDIKAANYDFYQLLEEKCCGKLDHINFPVFEPSTPDPAPAKNESSPAPPDSDADKLKEKEPQTQGESTSLSLALSLGQSTDSLGTYPADPQAGGDNPEVHGQVEVKTEKRPNFVDRQASTVEYLPGMLHSNCPKGLLPKFSSWSLVKLGPAKSYNFHTGLDQQGFIPGTNYLMPWDIVIRTRAEDEGDLDTNSWPAPNKAIPGKRSAVVMGRGRRRDDIARAFVGFEYEDSRGRRFMCSGPDKVMKVMGSGPKESALKALNSDMPLYILSSSQGRGLKPHYAQLMRLFVVVPDAPLQIILMPQVQPGPPPCPVFYPEKQEITLPPDGLWVLRFPYAYVTERGPCFPPKENVQLMSYKVLRGVLKAVTQ
B2: UPF1, full length (natural protein)
chain: MSVEAYGPSSQTLTFLDTEEAELLGADTQGSEFEFTDFTLPSQTQTPPGGPGGPGGGGAGGPGGAGAGAAAGQLDAQVGPEGILQNGAVDDSVAKTSQLLAELNFEEDEEDTYYTKDLPIHACSYCGIHDPACVVYCNTSKKWFCNGRGNTSGSHIVNHLVRAKCKEVTLHKDGPLGETVLECYNCGCRNVFLLGFIPAKADSVVVLLCRQPCASQSSLKDINWDSSQWQPLIQDRCFLSWLVKIPSEQEQLRARQITAQQINKLEELWKENPSATLEDLEKPGVDEEPQHVLLRYEDAYQYQNIFGPLVKLEADYDKKLKESQTQDNITVRWDLGLNKKRIAYFTLPKTDSGNEDLVIIWLRDMRLMQGDEICLRYKGDLAPLWKGIGHVIKVPDNYGDEIAIELRSSVGAPVEVTHNFQVDFVWKSTSFDRMQSALKTFAVDETSVSGYIYHKLLGHEVEDVIIKCQLPKRFTAQGLPDLNHSQVYAVKTVLQRPLSLIQGPPGTGKTVTSATIVYHLARQGNGPVLVCAPSNIAVDQLTEKIHQTGLKVVRLCAKSREAIDSPVSFLALHNQIRNMDSMPELQKLQQLKDETGELSSADEKRYRALKRTAERELLMNADVICCTCVGAGDPRLAKMQFRSILIDESTQATEPECMVPVVLGAKQLILVGDHCQLGPVVMCKKAAKAGLSQSLFERLVVLGIRPIRLQVQYRMHPALSAFPSNIFYEGSLQNGVTAADRVKKGFDFQWPQPDKPMFFYVTQGQEEIASSGTSYLNRTEAANVEKITTKLLKAGAKPDQIGIITPYEGQRSYLVQYMQFSGSLHTKLYQEVEIASVDAFQGREKDFIILSCVRANEHQGIGFLNDPRRLNVALTRARYGVIIVGNPKALSKQPLWNHLLNYYKEQKVLVEGPLNNLRESLMQFSKPRKLVNTINPGARFMTTAMYDAREAIIPGSVYDRSSQGRPSSMYFQTHDQIGMISAGPSHVAAMNIPIPFNLVMPPMPPPGYFGQANGPAAGRGTPKGKTGRGGRQKNRFGLPGPSQTNLPNSQASQDVASQPFSQGALTQGYISMSQPSQMSQPGLSQPELSQDSYLGDEFKSQIDVALSQDSTYQGERAYQHGGVTGLSQY
B3: SMG-9 (natural protein)
chain: MSESGHSQPGLYGIERRRRWKEPGSGGPQNLSGPGGRERDYIAPWERERRDASEETSTSVMQKTPIILSKPPAERSKQPPPPTAPAAPPAPAPLEKPIVLMKPREEGKGPVAVTGASTPEGTAPPPPAAPAPPKGEKEGQRPTQPVYQIQNRGMGTAAPAAMDPVVGQAKLLPPERMKHSIKLVDDQMNWCDSAIEYLLDQTDVLVVGVLGLQGTGKSMVMSLLSANTPEEDQRTYVFRAQSAEMKERGGNQTSGIDFFITQERIVFLDTQPILSPSILDHLINNDRKLPPEYNLPHTYVEMQSLQIAAFLFTVCHVVIVVQDWFTDLSLYRFLQTAEMVKPSTPSPSHESSSSSGSDEGTEYYPHLVFLQNKARREDFCPRKLRQMHLMIDQLMAHSHLRYKGTLSMLQCNVFPGLPPDFLDSEVNLFLVPFMDSEAESENPPRAGPGSSPLFSLLPGYRGHPSFQSLVSKLRSQVMSMARPQLSHTILTEKNWFHYAARIWDGVRKSSALAEYSRLLA
B4: UPF2 (121–1227) (domain or fragment)
chain: MKEKEESIQLHQEAWERHHLRKELRSKNQNAPDSRPEENFFSRLDSSLKKNTAFVKKLKTITEQQRDSLSHDFNGLNLSKYIAEAVASIVEAKLKISDVNCAVHLCSLFHQRYADFAPSLLQVWKKHFEARKEEKTPNITKLRTDLRFIAELTIVGIFTDKEGLSLIYEQLKNIINADRESHTHVSVVISFCRHCGDDIAGLVPRKVKSAAEKFNLSFPPSEIISPEKQQPFQNLLKEYFTSLTKHLKRDHRELQNTERQNRRILHSKGELSEDRHKQYEEFAMSYQKLLANSQSLADLLDENMPDLPQDKPTPEEHGPGIDIFTPGKPGEYDLEGGIWEDEDARNFYENLIDLKAFVPAILFKDNEKSCQNKESNKDDTKEAKESKENKEVSSPDDLELELENLEINDDTLELEGGDEAEDLTKKLLDEQEQEDEEASTGSHLKLIVDAFLQQLPNCVNRDLIDKAAMDFCMNMNTKANRKKLVRALFIVPRQRLDLLPFYARLVATLHPCMSDVAEDLCSMLRGDFRFHVRKKDQINIETKNKTVRFIGELTKFKMFTKNDTLHCLKMLLSDFSHHHIEMACTLLETCGRFLFRSPESHLRTSVLLEQMMRKKQAMHLDARYVTMVENAYYYCNPPPAEKTVKKKRPPLQEYVRKLLYKDLSKVTTEKVLRQMRKLPWQDQEVKDYVICCMINIWNVKYNSIHCVANLLAGLVLYQEDVGIHVVDGVLEDIRLGMEVNQPKFNQRRISSAKFLGELYNYRMVESAVIFRTLYSFTSFGVNPDGSPSSLDPPEHLFRIRLVCTILDTCGQYFDRGSSKRKLDCFLVYFQRYVWWKKSLEVWTKDHPFPIDIDYMISDTLELLRPKIKLCNSLEESIRQVQDLEREFLIKLGLVNDKDSKDSMTEGENLEEDEEEEEGGAETEEQSGNESEVNEPEEEEGSDNDDDEGEEEEEENTDYLTDSNKENETDEENTEVMIKGGGLKHVPCVEDEDFIQALDKMMLENLQQRSGESVKVHQLDVAIPLHLKSQLRKGPPLGGGEGEAESADTMPFVMLTRKGNKQQFKILNVPMSSQLAANHWNQQQAEQEERMRMKKLTLDINERQEQED

Experiments:
[1] = molecular target: T1, SMG-1, full length, SBP-tagged (human, UniProt Q96Q15 1-3661); assay: cross-linking
T1 sequence (Q96Q15 whole entry): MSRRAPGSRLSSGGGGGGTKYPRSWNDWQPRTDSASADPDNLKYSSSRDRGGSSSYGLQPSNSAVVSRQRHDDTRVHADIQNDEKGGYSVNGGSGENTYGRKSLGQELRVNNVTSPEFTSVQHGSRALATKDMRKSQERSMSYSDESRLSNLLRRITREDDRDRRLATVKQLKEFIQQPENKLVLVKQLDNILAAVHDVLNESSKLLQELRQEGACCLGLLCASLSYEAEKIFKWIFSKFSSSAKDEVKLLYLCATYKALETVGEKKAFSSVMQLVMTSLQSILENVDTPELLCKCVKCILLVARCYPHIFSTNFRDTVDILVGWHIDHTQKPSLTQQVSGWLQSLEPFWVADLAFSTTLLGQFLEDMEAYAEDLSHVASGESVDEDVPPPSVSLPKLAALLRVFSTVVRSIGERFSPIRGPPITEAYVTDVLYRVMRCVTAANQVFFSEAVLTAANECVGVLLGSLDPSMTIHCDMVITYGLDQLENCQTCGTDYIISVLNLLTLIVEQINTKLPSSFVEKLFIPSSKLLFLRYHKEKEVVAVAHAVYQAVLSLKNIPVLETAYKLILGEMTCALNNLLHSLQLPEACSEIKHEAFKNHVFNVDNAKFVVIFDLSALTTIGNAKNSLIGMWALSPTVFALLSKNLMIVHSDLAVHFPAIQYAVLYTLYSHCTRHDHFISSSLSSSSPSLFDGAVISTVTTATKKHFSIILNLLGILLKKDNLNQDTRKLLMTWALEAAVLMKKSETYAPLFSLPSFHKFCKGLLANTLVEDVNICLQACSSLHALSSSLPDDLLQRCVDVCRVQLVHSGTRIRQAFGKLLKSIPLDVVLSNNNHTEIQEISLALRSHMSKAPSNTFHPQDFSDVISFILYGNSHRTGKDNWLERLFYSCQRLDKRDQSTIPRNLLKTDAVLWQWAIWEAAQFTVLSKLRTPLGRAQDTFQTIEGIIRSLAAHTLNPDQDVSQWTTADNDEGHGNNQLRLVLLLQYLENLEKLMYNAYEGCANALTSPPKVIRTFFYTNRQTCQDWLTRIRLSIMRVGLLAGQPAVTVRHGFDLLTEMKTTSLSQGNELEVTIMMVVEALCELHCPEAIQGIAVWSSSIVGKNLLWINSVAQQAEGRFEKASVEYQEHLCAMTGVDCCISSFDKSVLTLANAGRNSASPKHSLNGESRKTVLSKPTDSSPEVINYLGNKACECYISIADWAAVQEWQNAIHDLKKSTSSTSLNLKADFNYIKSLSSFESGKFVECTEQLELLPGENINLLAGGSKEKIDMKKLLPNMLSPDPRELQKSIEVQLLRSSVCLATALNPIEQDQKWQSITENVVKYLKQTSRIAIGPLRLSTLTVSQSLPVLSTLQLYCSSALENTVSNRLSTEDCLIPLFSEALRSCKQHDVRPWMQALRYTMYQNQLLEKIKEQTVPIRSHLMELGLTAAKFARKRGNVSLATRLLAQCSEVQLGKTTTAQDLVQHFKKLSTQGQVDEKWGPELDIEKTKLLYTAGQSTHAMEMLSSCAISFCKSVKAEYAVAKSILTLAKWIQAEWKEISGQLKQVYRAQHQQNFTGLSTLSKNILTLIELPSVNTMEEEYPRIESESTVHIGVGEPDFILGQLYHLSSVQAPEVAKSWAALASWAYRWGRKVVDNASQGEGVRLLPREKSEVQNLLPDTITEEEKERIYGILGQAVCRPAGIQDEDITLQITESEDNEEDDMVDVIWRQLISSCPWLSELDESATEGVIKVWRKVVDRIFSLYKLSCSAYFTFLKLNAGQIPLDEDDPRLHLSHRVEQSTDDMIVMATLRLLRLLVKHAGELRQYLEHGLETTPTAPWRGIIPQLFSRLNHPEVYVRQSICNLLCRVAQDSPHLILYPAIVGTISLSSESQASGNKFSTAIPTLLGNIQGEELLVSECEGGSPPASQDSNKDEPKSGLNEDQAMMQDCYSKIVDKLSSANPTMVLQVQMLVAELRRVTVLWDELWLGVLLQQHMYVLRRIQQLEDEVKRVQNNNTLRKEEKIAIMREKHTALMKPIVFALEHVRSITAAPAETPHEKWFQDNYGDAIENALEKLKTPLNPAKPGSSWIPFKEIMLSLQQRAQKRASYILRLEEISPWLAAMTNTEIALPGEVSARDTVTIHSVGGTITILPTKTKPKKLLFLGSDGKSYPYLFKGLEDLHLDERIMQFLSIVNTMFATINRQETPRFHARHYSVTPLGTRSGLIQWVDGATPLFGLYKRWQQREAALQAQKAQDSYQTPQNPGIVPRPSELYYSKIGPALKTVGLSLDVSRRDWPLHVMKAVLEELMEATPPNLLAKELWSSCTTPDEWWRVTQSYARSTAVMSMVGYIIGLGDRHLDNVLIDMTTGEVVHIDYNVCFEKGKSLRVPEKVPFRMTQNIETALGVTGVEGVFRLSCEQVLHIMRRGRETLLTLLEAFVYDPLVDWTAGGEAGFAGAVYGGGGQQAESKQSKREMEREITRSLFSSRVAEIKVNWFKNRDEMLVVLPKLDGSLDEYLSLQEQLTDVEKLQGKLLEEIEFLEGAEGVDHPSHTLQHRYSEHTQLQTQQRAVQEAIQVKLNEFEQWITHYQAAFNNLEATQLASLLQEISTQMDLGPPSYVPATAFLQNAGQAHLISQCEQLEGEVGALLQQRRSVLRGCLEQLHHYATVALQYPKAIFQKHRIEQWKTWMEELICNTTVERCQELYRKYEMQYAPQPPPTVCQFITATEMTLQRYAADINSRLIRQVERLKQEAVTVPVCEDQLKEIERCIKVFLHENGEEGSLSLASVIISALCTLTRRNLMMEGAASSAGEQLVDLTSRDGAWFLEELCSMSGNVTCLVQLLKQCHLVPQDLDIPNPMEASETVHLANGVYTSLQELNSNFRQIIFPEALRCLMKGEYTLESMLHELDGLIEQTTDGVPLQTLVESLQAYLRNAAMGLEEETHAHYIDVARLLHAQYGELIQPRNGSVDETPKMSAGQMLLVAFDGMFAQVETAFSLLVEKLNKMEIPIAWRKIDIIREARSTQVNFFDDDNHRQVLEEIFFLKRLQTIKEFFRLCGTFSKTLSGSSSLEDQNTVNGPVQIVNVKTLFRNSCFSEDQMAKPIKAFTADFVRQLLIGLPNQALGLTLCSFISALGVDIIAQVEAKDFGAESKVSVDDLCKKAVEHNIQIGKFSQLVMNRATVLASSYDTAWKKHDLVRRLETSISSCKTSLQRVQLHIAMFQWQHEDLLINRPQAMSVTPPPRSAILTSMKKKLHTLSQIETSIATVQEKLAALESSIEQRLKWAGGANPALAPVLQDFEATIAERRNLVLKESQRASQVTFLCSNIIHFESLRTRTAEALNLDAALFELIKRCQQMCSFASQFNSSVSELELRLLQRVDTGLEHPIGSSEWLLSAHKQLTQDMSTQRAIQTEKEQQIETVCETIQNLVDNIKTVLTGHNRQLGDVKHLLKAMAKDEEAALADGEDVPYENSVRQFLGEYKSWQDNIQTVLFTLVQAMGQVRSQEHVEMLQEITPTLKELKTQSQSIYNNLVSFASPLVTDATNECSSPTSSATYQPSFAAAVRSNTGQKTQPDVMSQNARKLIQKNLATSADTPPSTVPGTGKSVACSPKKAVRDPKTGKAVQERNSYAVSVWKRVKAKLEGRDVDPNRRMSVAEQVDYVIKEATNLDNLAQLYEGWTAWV

SMG-1–8–9 complex = SMG-1–8–9 complex (human | , UniProt Q96Q15;Q8ND04;Q9H0W8); assay: negative-stain electron microscopy
Sequence of SMG-1–8–9 complex (Q96Q15 whole entry, one chain of several): as the sequence (Q96Q15 whole entry) above

[2] = molecular target: T1, SMG-1, full length, SBP-tagged; assay: cryo-EM structure
SMG-8 = molecular target: B1; assay: cross-linking
UPF1, full length [3] = molecular target: B2; assay: cross-linking
UPF1, full length [4] = molecular target: B2; assay: SEC

Binder: B1
- binding result [1]: binds

Binder: B2
- binding result (SMG-1–8–9 complex): binds
- binding result [2]: binds

Binder: B3
- binding result (SMG-8): binds
- binding result [1]: binds
- binding result (UPF1, full length [3]): binds

Binder: B4
- binding result (UPF1, full length [4]): binds
